This note sets out measurements from paper PMC3769348, “Secreted and Transmembrane 1A Is a Novel Co-Stimulatory Ligand” (PLoS ONE, 2013).

The target of this test is T1, SECTM1B-Fc fusion protein (extracellular domain of murine SECTM1B fused to aglycosyl human IgG1 Fc) (mouse, UniProt Q9JL59 29-160, N-glycosylated).
T1 construct: Secreted and transmembrane 1B (SECTM1B), mouse, extracellular domain; The cDNA was cloned between a CD5 leader and the human IgG1 aglycosyl Fc in pEE12(CMV/T7)CD5Lhγ1; also called mSECTM1B-Fc; Secreted and transmembrane 1B; source: CHO-S cells, purified with protein G agarose (elution with glycine pH 2.0); not shown: Fc (human IgG1, aglycosyl mutant), C-terminal, kept
T1 sequence (looked up): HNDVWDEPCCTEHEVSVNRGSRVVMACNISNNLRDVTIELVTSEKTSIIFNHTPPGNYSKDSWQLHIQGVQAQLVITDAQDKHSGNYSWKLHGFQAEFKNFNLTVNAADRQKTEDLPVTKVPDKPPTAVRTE
The experiment in a line: SPR; BIAcore 3000, 25°C, CM5 chip; Fc fusion proteins held on separate flow cells by mouse anti-human IgG (SBH2) on amine-coupled rabbit anti-mouse antibody; Fc fusion proteins at 25 µM injected in HEPES-buffered saline pH 7.4 at 5 µl per minute. The note with it: both partners purified.

B1: CD7-Fc fusion protein (extracellular domain of murine CD7 fused to aglycosyl human IgG1 Fc) (Fc fusion, mouse, UniProt P50283 24-150, looked up)
chain: QDVHQSPRLTIASEGDSVNITCSTRGHLEGILMKKIWPQAYNVIYFEDRQEPTVDRTFSGRINFSGSQKNLTITISSLQLADTGDYTCEAVRKVSARGLFTTVVVKEKSSQEAYRSQEPLQTSFSFP
modifications: N-glycosylated
notes: CD7, mouse, extracellular domain; The cDNA was cloned between a CD5 leader and the human IgG1 aglycosyl Fc in pEE12(CMV/T7)CD5Lhγ1; also called mCD7-Fc; source: CHO-S cells, purified with protein G agarose (elution with glycine pH 2.0); not shown: Fc (human IgG1, aglycosyl mutant), C-terminal, kept
In the case of B1, the binding result is “binds”.
